From patent US9694061B2, “Fully human antibodies to high molecular weight-melanoma associated antigen and uses thereof” (University of Pittsburgh—Of the Commonwealth System of …, priority 2008, dated 2017)

How the values were obtained:
HMW-MAA [1] = molecular target: T1, HMW-MAA (Homo sapiens, UniProt Q6UVK1); test: Flow cytometry of M14/HMW-MAA transfectants and parental M14 cells stained with scFv; assay type: binding; parameters: from tissue; host or cells: human nevi, primary and metastatic melanoma lesions (frozen sections)
T1 sequence (Q6UVK1 30-2322): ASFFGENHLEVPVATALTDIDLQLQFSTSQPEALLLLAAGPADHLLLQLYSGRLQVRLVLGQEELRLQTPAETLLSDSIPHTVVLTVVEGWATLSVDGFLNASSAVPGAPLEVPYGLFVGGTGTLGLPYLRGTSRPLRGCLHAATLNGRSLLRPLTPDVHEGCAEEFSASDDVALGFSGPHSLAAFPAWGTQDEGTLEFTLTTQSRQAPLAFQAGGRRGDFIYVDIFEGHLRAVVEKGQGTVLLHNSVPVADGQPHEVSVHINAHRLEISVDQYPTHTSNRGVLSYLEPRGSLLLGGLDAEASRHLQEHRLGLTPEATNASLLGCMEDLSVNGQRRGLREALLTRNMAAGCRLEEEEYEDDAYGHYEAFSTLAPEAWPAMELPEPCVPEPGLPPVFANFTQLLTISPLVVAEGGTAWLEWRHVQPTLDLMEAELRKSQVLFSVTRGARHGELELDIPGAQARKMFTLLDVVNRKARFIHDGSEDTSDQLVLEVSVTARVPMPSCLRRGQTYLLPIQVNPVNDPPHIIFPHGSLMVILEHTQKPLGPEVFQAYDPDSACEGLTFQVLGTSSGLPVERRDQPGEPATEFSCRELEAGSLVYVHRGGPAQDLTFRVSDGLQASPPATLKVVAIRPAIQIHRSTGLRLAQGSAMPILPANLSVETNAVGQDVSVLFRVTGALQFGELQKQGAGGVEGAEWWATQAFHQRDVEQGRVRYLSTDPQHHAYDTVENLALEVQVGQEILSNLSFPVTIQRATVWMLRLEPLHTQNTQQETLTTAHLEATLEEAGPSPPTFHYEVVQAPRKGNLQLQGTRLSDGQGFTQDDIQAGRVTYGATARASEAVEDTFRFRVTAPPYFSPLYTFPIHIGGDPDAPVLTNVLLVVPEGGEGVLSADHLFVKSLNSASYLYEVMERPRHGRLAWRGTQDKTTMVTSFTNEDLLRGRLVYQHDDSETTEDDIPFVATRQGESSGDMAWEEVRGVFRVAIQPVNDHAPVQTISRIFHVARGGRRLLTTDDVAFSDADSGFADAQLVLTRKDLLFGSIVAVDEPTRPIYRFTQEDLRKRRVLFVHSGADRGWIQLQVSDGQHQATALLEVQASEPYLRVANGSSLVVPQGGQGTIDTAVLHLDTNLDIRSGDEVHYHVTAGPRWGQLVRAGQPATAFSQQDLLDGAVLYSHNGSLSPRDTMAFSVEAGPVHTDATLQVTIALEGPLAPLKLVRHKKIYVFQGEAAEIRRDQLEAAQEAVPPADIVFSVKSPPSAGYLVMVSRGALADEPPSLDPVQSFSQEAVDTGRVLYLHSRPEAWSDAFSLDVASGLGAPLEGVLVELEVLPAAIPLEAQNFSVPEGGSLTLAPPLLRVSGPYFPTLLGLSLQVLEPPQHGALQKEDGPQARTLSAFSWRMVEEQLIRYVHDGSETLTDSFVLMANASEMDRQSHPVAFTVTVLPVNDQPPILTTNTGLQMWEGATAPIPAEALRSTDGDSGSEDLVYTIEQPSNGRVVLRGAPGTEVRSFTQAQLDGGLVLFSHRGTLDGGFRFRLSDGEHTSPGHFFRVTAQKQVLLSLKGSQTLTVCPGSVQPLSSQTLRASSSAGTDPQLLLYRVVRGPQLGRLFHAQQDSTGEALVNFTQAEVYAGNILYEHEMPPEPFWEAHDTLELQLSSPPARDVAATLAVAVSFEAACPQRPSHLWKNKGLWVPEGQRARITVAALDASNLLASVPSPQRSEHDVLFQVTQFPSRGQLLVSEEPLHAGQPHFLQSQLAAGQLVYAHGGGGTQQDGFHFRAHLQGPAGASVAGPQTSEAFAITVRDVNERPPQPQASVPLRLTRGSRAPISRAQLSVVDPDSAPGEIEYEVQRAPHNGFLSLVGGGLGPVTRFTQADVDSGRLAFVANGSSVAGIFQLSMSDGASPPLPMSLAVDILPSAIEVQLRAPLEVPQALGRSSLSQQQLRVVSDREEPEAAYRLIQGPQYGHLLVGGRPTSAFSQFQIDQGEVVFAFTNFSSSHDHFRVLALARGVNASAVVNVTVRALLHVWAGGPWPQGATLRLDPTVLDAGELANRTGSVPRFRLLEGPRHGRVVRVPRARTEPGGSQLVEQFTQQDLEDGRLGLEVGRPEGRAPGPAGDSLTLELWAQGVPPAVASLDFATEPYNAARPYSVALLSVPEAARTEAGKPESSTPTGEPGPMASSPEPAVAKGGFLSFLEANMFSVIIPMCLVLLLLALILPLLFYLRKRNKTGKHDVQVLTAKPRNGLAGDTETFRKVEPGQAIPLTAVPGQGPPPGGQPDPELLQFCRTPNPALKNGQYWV
Procedure: FIG. 2. Flow cytometry analysis of HMW-MAA^+ M14#5/HMW-MAA melanoma cells stained with scFv C21. M14#5/HMW-MAA transfectants and parental HMW-MAA^− M14#5 cells were incubated on ice with PP scFv C21 and mAb 9E10 (empty histogram) and control PP scFv 119 and mAb 9E10 (grey histogram) (top panel), with HMW-MAA-specific mouse mAb 763.74 (0.5 μg) (empty histogram) and control mAb MK2-23 (grey histogram) (middle panel) and with HLA class I antigen-specific mAb TP25.99 (empty histogram) and control mAb MK2-23 (grey histogram) (bottom panel). Binding of antibodies was detected using RPE-labeled F(ab′)2 fragments of goat anti-mouse Ig antibodies. Cells were analyzed with a FACScan™ flow cytometer. Results are expressed as fluorescence intensity.
Flow cytometry analysis of melanoma cells stained with scFv antibodies or antibodies in immune sera was performed as described (Wang et al., J Immunol Methods 294:23-35, 2004, herein incorporated by reference). […] Following two washes, cells were fixed in 2% formaldehyde and analyzed with a FACScan™ flow cytometer (BD Biosciences, San Jose, Calif.). A total of 10,000 cells were counted using a forward and side scatter gate to eliminate aggregates and debris for each sample. Results are expressed as relative fluorescence intensity.

HMW-MAA [2] = molecular target: T1, HMW-MAA; test: Indirect immunoperoxidase staining of melanocytic lesions; assay type: binding; parameters: from tissue; host or cells: human nevi, primary and metastatic melanoma lesions (frozen sections)
From the text: FIGS. 6A-6F. Immunohistochemical staining by scFv C21 of frozen surgically removed human nevi and melanoma lesions. scFv C21 stains a frozen nevus (FIG. 6A), a frozen primary melanoma lesion (FIG. 6B) and a frozen metastatic melanoma lesion (FIG. 6C). The specificity of the staining was monitored by staining the nevus (FIG. 6D), the primary (FIG. 6E) and the metastatic (FIG. 6F) melanoma lesions with the unrelated scFv #119.
The human melanoma cell lines Colo38, FO-1 and Melur and the human B lymphoid cell line LG2 were maintained in RPMI 1640 medium (Tissue Culture Media Facility, Roswell Park Cancer Institute (RPCI), Buffalo, N.Y.) supplemented with 10% serum plus supplement (BioWhittaker, Walkersville, Md.) and 2 mM L-glutamine (BioWhittaker). The human melanoma cell lines M14 and SK-MEL-28, the human fibroblasts FF2376, the human breast carcinoma cell line T47D, the human bladder carcinoma cell line T24, the human prostate carcinoma cell line PC3, the human B lymphoid cell lines JY and LKT13, and the rat neural cell line B49 were maintained in RPMI 1640 medium supplemented with 10% fetal bovine serum (FBS) (BioWhittaker) and 2 mM L-glutamine. The M14/HMW-MAA cells which express HMW-MAA following transfection of M14 cells with a plasmid DNA of pcDNA 3.1™ (+)/full length of HMW-MAA DNA construct (Yang et al., J Cell Biol 165:881-891, 2004) were grown in RPMI 1640 medium supplemented with 10% FBS, 2 mM L-glutamine and 0.4 mg/ml G418 (Promega, Madison, Wis.). Cells were cultured at 37° C. in a 5% CO2 atmosphere. Cell lysates were prepared as described (Desai et al., Cancer Res 58:2417-2425, 1998, herein incorporated by reference). Lesions of melanocytic origin were obtained from patients who had undergone surgery in the Department of Dermatology at Kumamoto University School of Medicine (Kumamoto, Japan). The diagnosis of melanoma lesions was based on histopathologic characteristics. The frozen and formalin-fixed tissue sections were prepared as described previously (Desai et al., Cancer Res 58:2417-2425, 1998, herein incorporated by reference).
The indirect immunoperoxidase staining of frozen and formalin-fixed tissue sections was performed as described previously (Desai et al., Cancer Res 58:2417-2425, 1998, herein incorporated by reference).

B1: scFv C21: HMW-MAA-specific fully human scFv from semi-synthetic phage display library; VH SEQ ID NO: 5, VL SEQ ID NO: 6 (antibody, listed as Homo sapiens, V domains shown)
VH: QVQLVQSGAEVKKPGSSVKVSCKASGGTFSSYAISWVRQAPGQGLEWMGGIIPIFGTANYAQKFQGRVTITADESTSTAYMELSSLRSDDTAVYYCARALDPITFDSWGQGTLVTVSR
VL: SELTQDPAVSVALGQTVRITCQGDSLRSYYASWYQQKPGQAPVLVIYGKNNRPSGIPDRFSGSSSGNTASLTITGAQAEDEADYYCNSRDSSGNHVVFGGGTKLTVLGRS
modifications: scFv linker
Flow cytometry staining of HMW-MAA transfected M14 cells (HMW-MAA [1]; M14 cells stably transfected with full length HMW-MAA): stained M14 cells which express HMW-MAA
Flow cytometry staining of parental M14 cells (HMW-MAA [1]; parental M14 cells, do not express HMW-MAA): did not stain the parental M14 cells
Staining of formalin fixed paraffin embedded melanocytic lesions (HMW-MAA [2]; formalin fixed paraffin embedded): did not stain
Staining of frozen melanocytic lesions in the immunoperoxidase reaction (HMW-MAA [2]; frozen sections): stained frozen melanocytic lesions
Metastatic lesions stained with a heterogeneous pattern (HMW-MAA [2]; metastatic lesions): 3 lesions
Metastatic lesions stained with a homogeneous pattern (HMW-MAA [2]; metastatic lesions): 3 lesions
Metastatic lesions with cytoplasmic staining (HMW-MAA [2]; metastatic lesions): 3 lesions
Metastatic lesions with membranous and cytoplasmic staining (HMW-MAA [2]; metastatic lesions): 3 lesions
Primary lesions stained with a heterogeneous pattern (HMW-MAA [2]; out of 15 primary lesions): 2 lesions
Primary lesions stained with a homogeneous pattern (HMW-MAA [2]; out of 15 primary lesions): 9 lesions
Pigmented nevi stained homogeneously (membranous and cytoplasmic pattern) (HMW-MAA [2]; pigmented nevi): 4
Primary lesions with cytoplasmic staining (HMW-MAA [2]; primary lesions): 6 lesions
Primary lesions with membranous and cytoplasmic staining (HMW-MAA [2]; primary lesions): 4 lesions
Primary lesions with membranous staining (HMW-MAA [2]; primary lesions): 1 lesions
